# Test results taken from patent US20260176653A1 (TRUSTEES OF BOSTON UNIVERSITY, published 2026).
# Where a chain is given by its changes, count along the chain named. Numbers in names are those of the source. Ends that are not written are not given here.
# T1: HCV protease NS3 from genotype 1B (NS4A/NS3, fused to the C-terminus of ADAR2-DD) (Hepatitis C virus genotype 1B, UniProt Q9WMX2 1029-1206)
# T1 chain: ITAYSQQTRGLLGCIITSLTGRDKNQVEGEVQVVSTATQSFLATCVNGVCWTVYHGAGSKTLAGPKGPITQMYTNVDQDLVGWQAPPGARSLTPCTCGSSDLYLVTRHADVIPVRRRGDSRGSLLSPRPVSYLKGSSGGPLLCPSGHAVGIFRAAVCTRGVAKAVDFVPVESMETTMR
# B1: Bad(L) peptide (Bad point mutant F121L, inserted at the 5' RNA binding loop of ADAR2-DD) (peptide)
# peptide: ASGSGTGAPPNLWAAQRYGRELRRMSDELV
# modifications: not fully specified (N-terminus, C-terminus); also: part of an expressed fusion protein
# B2: Bad(F) peptide (BH3 peptide Bad with its linker, as inserted at the 5' RNA binding loop of ADAR2-DD) (peptide)
# peptide: B1 peptide with L29F
# modifications: not fully specified (N-terminus, C-terminus); also: part of an expressed fusion protein
# B3: ALFA-Bcl dual input iADAR (BAD peptide at the N-terminus of ADAR2-DD(F697Y), ALFA-PE at the 5' RNA binding site, AlfaNb and Bcl-xL in tandem at the C-terminus) (other)
# chain: MASNFTQFVLVDNGGTGDVTVAPSNFANGIAEWISSNSRSQAYKVTCSVRQSSAQNRKYTIKVEVPKGAWRSYLNMELTIPIFATNSDCELIVKAMQGLLKDGNPIPSAIAANSGIYGGSGSGAGSGSPAGGGAPGSGGGSTGAPPNLWAAQRYGRELRRMSDEFVDSFKKASQLHLPQVLADAVSRLVLGKFGDLTDNFSSPHARRKVLAGVVMTTGTDVKDAKVISVSTGTKCINGEYMSDRGLALNDCHAEIISRRSLLRFLYTQLELYLNNKDDQKRSIFQKSERGGFRLKENVQFHLYISTSPCGDARIFSPHEPILEEPAASGSGPGRLEEELRRRLSPGTGDRHPNRKARGQLRTKIESGQGTIPVRSNASIQTWDGVLQGERLLTMSCSDKIARWNVVGIQGSLLSIFVEPIYFSSIILGSLYHGDHLSRAMYQRISNIEDLPPLYTLNKPLLSGISNAEARQPGKAPNFSVNWTVGDSAIEVINATTGKDELGRASRLCKHALYCRWMRVHGKVPSHLLRSKITKPNVYHESKLAAKEYQAAKARLFTAFIKAGLGAWVEKPTEQDQYSLTGSGGTAEVQLQESGGGLVQPGGSLRLSCTASGVTISALNAMAMGWYRQAPGERRVMVAAVSERGNAMYRESVQGRFTVTRDFTNKMVSLQMDNLKPEDTAVYYCHVLEDRVDSFHDYWGQGTQVTVSSGAGSGASSNRELVVDFLSYKLSQKGYSWSQFSDVEENRTEAPEGTESEMETPSAINGNPSWHLADSPAVNGATGHSSSLDAREVIPMAAVKQALREAGDEFELRYRRAFSDLTSQLHITPGTAYQSFEQVVNELFRDGVNWGRIVAFFSFGGALCVESVDKEMQVLVSRIAAWMATYLNDHLEPWIQENGGWDTFVELYGNNGSSELIKENMHMKLYMEGTVDNHHFKCTSEGEGKPYEGTQTMRIKVVEGGPLPFAFDILATSFLYGSKTFINHTQGIPDFFKQSFPEGFTWERVTTYEDGGVLTATQDTSLQDGCLIYNVKIRGVNFTSNGPVMQKKTLGWEAFTETLYPADGGLEGRNDMALKLVGGSHLIANIKTTYRSKKPAKNLKMPGVYYVDYRLERIKEANNETYVEQHEVAVARYCDLPSKLGHKLN
# Assays:
# Assay in all cases: cell-based or functional assay
# [1] = molecular target: Bcl-xL (human, fused to the C-terminus of ADAR2-DD) (human, UniProt Q07817 4-198)
# [2] = molecular target: EGFP(R96M)-AlfaTag fusion protein (non-fluorescent EGFP carrying the ALFA tag)
# [3] = molecular target: T1, HCV protease NS3 from genotype 1B …
Binder,Fold Change (1 µM over 0 µM A-1331852) [1] [fold],"median ratio of mNeonGreen to mCherry, flow cytometry, 0 µM A-1331852 (background) [1]","median ratio of mNeonGreen to mCherry, flow cytometry, 1 µM A-1331852 [1]","median relative fluorescence, flow cytometry: A-1331852 plus EGFP(R96M)-AlfaTag against A-1331852 alone (the effect of adding the antigen) [2] [fold]","ratio of mNeonGreen to mCherry, 2 µM grazoprevir against no drug, HEK cells, imaging (fusion SEQ ID NO 169) [3] [fold]"
ASGSGTGAPPNLWAAQRYGRELRRMSDEGV (not fully specified),9.65,0.1,0.968,–,–
B1,23.2,0.0389,0.903,–,–
B2,37,0.026,0.962,–,–
B3,–,–,–,~10,–
"ASGSGTGAPPNLWAAQRYGRELRRMSDEVV (not fully specified) [BAD(V) peptide (Bad point mutant F121V, inserted at the 5' RNA binding loop of ADAR2-DD)]",14.4,0.0708,1.02,–,–
"GELDELVYLLDGPGYDPIHCDVVTRGGSHLFNF [CP5-46-4D5E peptide (NS3 binding peptide, inserted at the 5' RNA binding loop of ADAR2-DD)]",–,–,–,–,~18
